Targets include HLA-B and -C; HLA-A2 (human); HLA-A, -B and -C.
Holding throughout (experiment): cell-based or functional assay

Consider monoclonal antibody BB123.2, for which, in the assay with HLA-B and -C, the γ-IFN Elispot, ICD-specific CD8+ T cell line on Fibro/ICD stimulators pre-incubated with antibody (50 µg/mL) (Elispot spots per well) turned out to be 5; the γ-IFN Elispot, clone 17D5 on Fibro/ICD stimulators, antibody at 25 µg/mL (Elispot spots per well) worked out at 1; the γ-IFN Elispot, clone 17D5 on Fibros-H2N stimulators, antibody at 25 µg/mL (Elispot spots per well) was determined as 0.
In the assay with HLA-A2 (human), monoclonal antibody BB7.2 displayed a γ-IFN Elispot, ICD-specific CD8+ T cell line on Fibro/ICD stimulators pre-incubated with antibody (50 µg/mL) (Elispot spots per well) of 213; a γ-IFN Elispot, clone 17D5 on Fibro/ICD stimulators, antibody at 25 µg/mL (Elispot spots per well) of 165; a γ-IFN Elispot, clone 17D5 on Fibros-H2N stimulators, antibody at 25 µg/mL (Elispot spots per well) of 98.
For monoclonal antibody W6/32, in the assay with HLA-A, -B and -C, the γ-IFN Elispot, ICD-specific CD8+ T cell line on Fibro/ICD stimulators pre-incubated with antibody (50 µg/mL) (Elispot spots per well) stood at 4; the γ-IFN Elispot, clone 17D5 on Fibro/ICD stimulators, antibody at 25 µg/mL (Elispot spots per well) was determined as 3; the γ-IFN Elispot, clone 17D5 on Fibros-H2N stimulators, antibody at 25 µg/mL (Elispot spots per well) is 0.

Values taken from US20020039573A1.
